Results reported in patent US20250257107.

Target: fusion of human collagen type I, alpha 1 solubility-enhancing sequence (HsCol1a1-27), TEV cleavage site ENLYFQG and human keratin type 31 polypeptide fragment (K31)

B1: AcTEV protease (protein)
chain: GESLFKGPRDYNPISSTICHLTNESDGHTTSLYGIGFGPFIITNKHLFRRNNGTLLVQSLHGVFKVKNTTTLQQHLIDGRDMIIIRMPKDFPPFPQKLKFREPQREERICLVTTNFQTKSMSSMVSDTSCTFPSSDGIFWKHWIQTKDGQCGSPLVSTRDGFIVGIHSASNFTNTNNYFTSVPKNFMELLTNQEAQQWVSGWRLNADSVLWGGHKVFMSKPEEPFQPVKEATQLMNELVYSQ
- cleavage of the fusion protein, SDS-PAGE with Coomassie Blue: confirm that the cleavage was successful
